{
  "source": "paper doi:10.1101/2021.05.26.445185",
  "assay_in_all_cases": "single-molecule FRET",
  "settings_in_all_cases": "5' m7GpppAm cap named for viral RNA; 3' poly(A) of unstated length",
  "key": {"[1]": {"system": "Cy5-eIF4E(S209D) (Homo sapiens)"}, "[2]": {"biological_target": "Cy5-eIF4E;eIF4G(557-1137);eIF4A (Homo sapiens;Homo sapiens;Homo sapiens) (UniProt Q04637)"}, "[3]": {"biological_target": "Cy5-eIF4E(S209D);eIF4G(557-1137);eIF4A (Homo sapiens;Homo sapiens;Homo sapiens) (UniProt Q04637)"}, "Cy5-eIF4E (Homo sapiens)": {"system": "Cy5-eIF4E (Homo sapiens)"}},
  "data": [
    {"substance": "capped polyadenylated SARS-CoV-2 5' UTR", "values": [
      {"measurement": "Kd", "setting": "[1]", "result": 62, "unit": "nM"},
      {"measurement": "Kd", "setting": "[2]", "result": 127, "unit": "nM"},
      {"measurement": "Kd", "setting": "[3]", "result": 78, "unit": "nM"},
      {"measurement": "Kd", "setting": "Cy5-eIF4E (Homo sapiens)", "result": 74, "unit": "nM"}
    ]}
  ]
}
